# Assay results: patent publication US20100184658A1 (published 2010)
# T1: SGK (SGK1) Serum/glucocorticoid regulated kinase (human (printed as (h)), UniProt O00141 60-431, limits assumed)
# T1 sequence (looked up): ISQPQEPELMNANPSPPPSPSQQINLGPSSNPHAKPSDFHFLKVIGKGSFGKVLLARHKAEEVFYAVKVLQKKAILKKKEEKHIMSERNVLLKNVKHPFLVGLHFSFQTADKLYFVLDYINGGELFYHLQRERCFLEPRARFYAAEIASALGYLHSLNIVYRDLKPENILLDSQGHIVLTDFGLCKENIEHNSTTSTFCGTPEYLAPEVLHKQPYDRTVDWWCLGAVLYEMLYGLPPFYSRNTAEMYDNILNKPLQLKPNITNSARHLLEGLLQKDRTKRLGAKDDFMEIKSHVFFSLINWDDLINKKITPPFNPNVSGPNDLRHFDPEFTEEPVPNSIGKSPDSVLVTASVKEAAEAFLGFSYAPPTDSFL
# T2: PRKG2 (PKG2) (UniProt Q13237 1-762, limits assumed)
# T2 sequence (looked up): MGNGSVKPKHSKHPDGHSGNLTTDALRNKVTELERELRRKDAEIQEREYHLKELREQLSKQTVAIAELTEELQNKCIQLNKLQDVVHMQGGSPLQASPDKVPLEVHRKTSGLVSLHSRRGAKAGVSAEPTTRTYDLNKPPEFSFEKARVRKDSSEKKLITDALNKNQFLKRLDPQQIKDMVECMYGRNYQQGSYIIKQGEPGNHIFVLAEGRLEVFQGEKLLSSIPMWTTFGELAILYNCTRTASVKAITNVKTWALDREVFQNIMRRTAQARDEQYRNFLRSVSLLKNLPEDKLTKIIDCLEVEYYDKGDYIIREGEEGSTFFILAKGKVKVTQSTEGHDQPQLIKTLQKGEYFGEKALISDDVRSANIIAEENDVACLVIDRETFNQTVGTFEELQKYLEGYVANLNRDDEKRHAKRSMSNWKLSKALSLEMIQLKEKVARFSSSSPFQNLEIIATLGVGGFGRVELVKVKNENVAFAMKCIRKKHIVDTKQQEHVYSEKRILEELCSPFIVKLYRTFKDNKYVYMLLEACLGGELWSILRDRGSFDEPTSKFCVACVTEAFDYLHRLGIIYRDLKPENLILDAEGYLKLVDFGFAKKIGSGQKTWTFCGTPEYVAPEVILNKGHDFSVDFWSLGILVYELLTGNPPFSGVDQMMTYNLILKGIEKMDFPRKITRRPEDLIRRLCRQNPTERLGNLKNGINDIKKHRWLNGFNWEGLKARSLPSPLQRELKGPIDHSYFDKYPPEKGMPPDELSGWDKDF
# T3: PHKG2 Phosphorylase kinase, gamma 2 (UniProt P15735 1-406, limits assumed)
# T3 sequence (looked up): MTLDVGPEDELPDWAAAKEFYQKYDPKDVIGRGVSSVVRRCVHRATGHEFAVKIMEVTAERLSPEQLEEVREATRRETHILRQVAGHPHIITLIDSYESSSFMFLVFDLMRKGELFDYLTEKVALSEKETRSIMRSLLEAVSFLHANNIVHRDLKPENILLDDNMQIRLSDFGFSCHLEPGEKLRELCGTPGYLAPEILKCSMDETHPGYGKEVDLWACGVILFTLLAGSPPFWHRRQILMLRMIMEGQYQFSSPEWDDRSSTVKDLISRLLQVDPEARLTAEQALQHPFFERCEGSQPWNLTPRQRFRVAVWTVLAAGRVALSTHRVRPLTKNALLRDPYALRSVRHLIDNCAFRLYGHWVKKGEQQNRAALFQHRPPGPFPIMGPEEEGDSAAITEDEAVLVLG
# T4: PDK1 (human (printed as (h)), UniProt O15530 1-556, limits assumed)
# T4 sequence (looked up): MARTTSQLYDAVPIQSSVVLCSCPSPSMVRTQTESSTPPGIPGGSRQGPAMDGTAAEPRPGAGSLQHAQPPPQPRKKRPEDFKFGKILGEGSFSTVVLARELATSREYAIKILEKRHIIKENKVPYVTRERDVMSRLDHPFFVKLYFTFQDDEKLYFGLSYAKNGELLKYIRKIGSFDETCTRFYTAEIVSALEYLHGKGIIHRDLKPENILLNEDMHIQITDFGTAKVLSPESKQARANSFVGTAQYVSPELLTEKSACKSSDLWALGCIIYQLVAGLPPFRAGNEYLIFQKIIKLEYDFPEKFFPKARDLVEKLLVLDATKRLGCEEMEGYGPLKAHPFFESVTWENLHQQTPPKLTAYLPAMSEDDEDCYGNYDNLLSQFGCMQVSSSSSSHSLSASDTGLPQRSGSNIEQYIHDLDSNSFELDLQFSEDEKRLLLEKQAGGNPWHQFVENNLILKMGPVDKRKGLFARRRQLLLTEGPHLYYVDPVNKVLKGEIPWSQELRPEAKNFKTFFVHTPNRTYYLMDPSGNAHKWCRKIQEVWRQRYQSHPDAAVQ
# Columns and labels:
# Test in all cases: cell-based or functional assay
# SRPK2 = SRPK2 (UniProt P78362 1-688, limits assumed)
# GRK6 = GRK6 (UniProt P43250 1-576, limits assumed)
# SRMS (Srm) = SRMS (Srm) (UniProt Q9H3Y6 1-488, limits assumed)
# [1] = biological target: RAF1 (cRAF) Y340D Y341D c-Raf (UniProt P04049 306-648, limits assumed)
# [2] = biological target: MAPKAPK2 Mitogen-activated protein kinase-activated protein kinase 2 (UniProt P49137 1-400, limits assumed)
# CAMK2B (CaMKII beta) = CAMK2B (CaMKII beta) (UniProt Q13554 1-666, limits assumed)
# CSK = CSK (UniProt P41240 1-450, limits assumed)
# [3] = biological target: T1, SGK (SGK1) Serum/glucocorticoid …
# [4] = biological target: RPS6KA4 (MSK2) Ribosomal protein S6 kinase, 90 kDa, polypeptide 4 (UniProt O75676 1-772, limits assumed)
# [5] = biological target: MAP3K8 (COT) Mitogen-activated protein kinase kinase kinase 8 (UniProt P41279 30-397, limits assumed)
# PRKG2 (PKG2) = biological target: T2, PRKG2 (PKG2)
# GRK4 = GRK4 (UniProt P32298 1-578, limits assumed)
# [6] = biological target: T3, PHKG2 Phosphorylase kinase, gamma 2
# PDK1 = biological target: T4, PDK1
# Further: test concentration or dose not given here.
binder,measurement,setting,value
SGRPPMIVWFNRPFLIAVSHTHGQTILFMAKVINPVGA [D3 peptide],% Inhibition mean,SRPK2,79.2%
same,% Inhibition mean,GRK6,57.1%
same,% Inhibition mean,SRMS (Srm),46.5%
same,% Inhibition mean,[1],94.6%
same,% Inhibition mean,[2],58%
same,% Inhibition mean,CAMK2B (CaMKII beta),90.3%
same,% Inhibition mean,CSK,55.2%
same,% Inhibition mean,[3],100%
same,% Inhibition mean,[4],96.8%
same,% Inhibition mean,[5],98.6%
same,% Inhibition mean,PRKG2 (PKG2),101%
same,% Inhibition mean,GRK4,58.6%
same,% Inhibition mean,[6],87%
same,% Inhibition mean,PDK1,64%
